A word on the stoichiometry N: it is the number of molecules, sites or subunits per partner or assembly.

The data set deals with the molecule itself. The experiment in a line: negative stain electron microscopy.

B1: peroxiredoxin PRDX2 (enzyme, human (endogenous in RBCs), UniProt P32119 1-198, looked up)
chain: MASGNARIGKPAPDFKATAVVDGAFKEVKLSDYKGKYVVLFFYPLDFTFVCPTEIIAFSNRAEDFRKLGCEVLGVSVDSQFTHLAWINTPRKEGGLGPLNIPLLADVTRRLSEDYGVLKTDEGIAYRGLFIIDGKGVLRQITVNDLPVGRSVDEALRLVQAFQYTDEHGEVCPAGWKPGSDTIKPNVDDSKEYFSKHN
Consider B1, for which the “stoichiometry N” value came out at 10.
